Data as given in patent US20230242635A1 (published 2023).
Where a chain is given by its changes, count along the chain named. Names may count otherwise.

B1: caninized anti-NGF antibody ZTS-841 (mAb2 of Table 4), canine IgGA, WT (antibody, from a related filing, part only)
heavy: EVQLVESGGDLVKPGGSLRLSCVASGFTFSSHGMHWVRQSPGKGLQWVAVINSGGSSTYYTDAVKGRFTISRDNAKNTVYLQMNSLRAEDTAMYYCAKESVGGWEQLVGPHFDYWGQGTLVIVSSASTTAPSVFPLAPSCGSTSGSTVALACLVSGYFPEPVTVSWNSGSLTSGVHTFPSVLQSSGLHSLSSMVTVPSSRWPSETFTCNVVHPASNTKVDKPVFNECRCTDTPPCPVPEPLGGPSVLIFPPKPKDILRITRTPEVTCVVLDLGREDPEVQISWFVDGKEVHTAKTQSREQQFNGTYRVVSVLPIEHQDWLTGKEFKCRVNHIDLPSPIERTISKARGRAHKPSVYVLPPSPKELSSSDTVSITCLIKDFYPPDIDVEWQSNGQQEPERKHRMTPPQLDEDGSYFLYSKLSVDKSRWQQGDPFTCAVMHETLQNHYTDLSLSHSPGK
VL: QSVLTQPTSVSGSLGQRVTISCSGSTNNIGILGASWYQLFPGKAPKLLVYGNGNRPSGVPDRFSGADSGDSVTLTITGLQAEDEADYYCQSFDTTLGAHVFGGGTHLTVL
B2: caninized anti-NGF antibody ZTS-841 (mAb2 of Table 4), canine IgGD, WT (antibody, from a related filing, part only)
heavy: EVQLVESGGDLVKPGGSLRLSCVASGFTFSSHGMHWVRQSPGKGLQWVAVINSGGSSTYYTDAVKGRFTISRDNAKNTVYLQMNSLRAEDTAMYYCAKESVGGWEQLVGPHFDYWGQGTLVIVSSASTTAPSVFPLAPSCGSTSGSTVALACLVSGYFPEPVTVSWNSGSLTSGVHTFPSVLQSSGLYSLSSTVTVPSSRWPSETFTCNVVHPASNTKVDKPVPKESTCKCISPCPVPESLGGPSVFIFPPKPKDILRITRTPEITCVVLDLGREDPEVQISWFVDGKEVHTAKTQPREQQFNSTYRVVSVLPIEHQDWLTGKEFKCRVNHIGLPSPIERTISKARGQAHQPSVYVLPPSPKELSSSDTVTLTCLIKDFFPPEIDVEWQSNGQPEPESKYHTTAPQLDEDGSYFLYSKLSVDKSRWQQGDTFTCAVMHEALQNHYTDLSLSHSPGK
VL: B1 VL
B3: caninized anti-NGF antibody ZTS-841 (mAb2 of Table 4), canine IgGC, WT (antibody, from a related filing, part only)
heavy: EVQLVESGGDLVKPGGSLRLSCVASGFTFSSHGMHWVRQSPGKGLQWVAVINSGGSSTYYTDAVKGRFTISRDNAKNTVYLQMNSLRAEDTAMYYCAKESVGGWEQLVGPHFDYWGQGTLVIVSSASTTAPSVFPLAPSCGSQSGSTVALACLVSGYIPEPVTVSWNSVSLTSGVHTFPSVLQSSGLYSLSSMVTVPSSRWPSETFTCNVAHPATNTKVDKPVAKECECKCNCNNCPCPGCGLLGGPSVFIFPPKPKDILVTARTPTVTCVVVDLDPENPEVQISWFVDSKQVQTANTQPREEQSNGTYRVVSVLPIGHQDWLSGKQFKCKVNNKALPSPIEEIISKTPGQAHQPNVYVLPPSRDEMSKNTVTLTCLVKDFFPPEIDVEWQSNGQQEPESKYRMTPPQLDEDGSYFLYSKLSVDKSRWQRGDTFICAVMHEALHNHYTQISLSHSPGK
VL: B1 VL
B4: caninized anti-IL31 antibody 11E12 (mAb1 of Table 5), canine IgGB, WT2 (antibody, part only; not given: light chain, part only)
heavy: EVQLVQSGAEVKKPGASVKVSCKTSGYTFKYYDINWVRQAPGAGLDWMGWIFPGDGGTKYNETFKGRVTLTADTSTSTAYMELSSLRAGDIAVYYCARGGTSVIRDAMDYWGQGTLVTVSSASTTAPSVFPLAPSCGSTSGSTVALACLVSGYFPEPVTVSWNSGSLTSGVHTFPSVLQSSGLYSLSSMVTVPSSRWPSETFTCNVAHPASKTKVDKPVPKRENGRVPRPPDCPKCPAPEMLGGPSVFIFPPKPKDTLLIARTPEVTCVVVDLDPEDPEVQISWFVDGKQMQTAKTQPREEQFNGTYRVVSVLPIGHQDWLKGKQFTCKVNNKALPSPIERTISKARGQAHQPSVYVLPPSREELSKNTVSLTCLIKDFFPPDIDVEWQSNGQQEPESKYRTTPPQLDEDGSYFLYSKLSVDKSRWQRGDTFICAVMHEALHNHYTQESLSHSPGK
B5: caninized anti-IL31 antibody (mAb1), canine IgGB, N434Y (antibody)
chain 1: EVQLVESGGDLVKPGGSLRLSCVASGFTFSNYGMSWVRQAPGKGLQWVATISYGGSYTYYPDNIKGRFTISRDNAKNTLYLQMNSLRAEDTAMYYCVRGYGYDTMDYWGQGTLVTVSSASTTAPSVFPLAPSCGSTSGSTVALACLVSGYFPEPVTVSWNSGSLTSGVHTFPSVLQSSGLYSLSSMVTVPSSRWPSETFTCNVAHPASKTKVDKPVPKRENGRVPRPPDCPKCPAPEMLGGPSVFIFPPKPKDTLLIARTPEVTCVVVDLDPEDPEVQISWFVDGKQMQTAKTQPREEQFNGTYRVVSVLPIGHQDWLKGKQFTCKVNNKALPSPIERTISKARGQAHQPSVYVLPPSREELSKNTVSLTCLIKDFFPPDIDVEWQSNGQQEPESKYRTTPPQLDEDGSYFLYSKLSVDKSRWQRGDTFICAVMHEALHYHYTQESLSHSPGK
chain 2: EIVMTQSPASLSLSQEEKVTITCKASQSVSFAGTGLMHWYQQKPGQAPKLLIYRASNLEAGVPSRFSGSGSGTDFSFTISSLEPEDVAVYYCQQSREYPWTFGQGTKLEIK
B6: caninized anti-IL31 antibody 34D03 (mAb1), canine IgGB, N434A (antibody)
chain 1: B5 chain 1 with Y440A
chain 2: B5 chain 2
B7: caninized anti-IL31 antibody 34D03 (mAb1), canine IgGB, N434I (antibody)
chain 1: B5 chain 1 with Y440I
chain 2: B5 chain 2
B8: caninized anti-IL31 antibody 34D03 (mAb1), canine IgGB, N434K (antibody)
chain 1: B5 chain 1 with Y440K
chain 2: B5 chain 2
B9: caninized anti-IL31 antibody 34D03 (mAb1), canine IgGB, N434G (antibody)
chain 1: B5 chain 1 with Y440G
chain 2: B5 chain 2
B10: caninized anti-IL31 antibody 34D03 (mAb1), canine IgGB, N434L (antibody)
chain 1: B5 chain 1 with Y440L
chain 2: B5 chain 2
B11: caninized anti-IL31 antibody 34D03 (mAb1), canine IgGB, N434F (antibody)
chain 1: B5 chain 1 with Y440F
chain 2: B5 chain 2

What follows are binders tested against canine FcRn complex (FcRn-α subunit and β-microglobulin), biotin labeled by BirA, captured on SA chip (Example 5) (canine) (assay: SPR (Biacore), biotinylated FcRn captured on SA chip, IgG flowed, pH 6, 15 C).

How did the Kd turn out when B1 was run?
Its Kd is 95.5 nM.

Which Kd does the source give for B2 here?
Its Kd is 71 nM.

B3 was tested. Which Kd did it give?
The Kd was 52 nM.

Which Kd does the source give for B4 here?
The Kd was 40 nM.

The binders below were run against T1, canine FcRn complex (FcRn-α subunit and β-microglobulin), biotin labeled by BirA, captured on SA chip … (canine, UniProt A0A8I3PFR8 25-296, biotin label by BirA enzymatic biotinylation (BAP tag)) (assay: SPR (Biacore), biotinylated FcRn captured on SA chip, IgG flowed, pH 7.4, 15 C).
T1 sequence (A0A8I3PFR8 entry or part of it, one chain of several): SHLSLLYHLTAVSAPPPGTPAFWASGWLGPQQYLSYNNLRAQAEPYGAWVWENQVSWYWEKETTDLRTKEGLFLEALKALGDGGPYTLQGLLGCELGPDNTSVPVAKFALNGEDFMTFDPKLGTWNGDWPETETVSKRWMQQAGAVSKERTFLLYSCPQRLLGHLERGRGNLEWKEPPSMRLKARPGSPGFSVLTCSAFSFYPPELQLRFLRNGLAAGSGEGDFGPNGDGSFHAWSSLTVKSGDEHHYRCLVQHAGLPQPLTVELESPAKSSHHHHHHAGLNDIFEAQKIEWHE

B5 was tested. Which Kd did it give?
Its Kd is 1900 nM.

Molecular target: T1, canine FcRn complex (FcRn-α subunit and …)
Assay: as above
Remark: another data set of the same source

For B6, which Kd is on record?
Its Kd is 0.175 µM.

Which Kd does the source give for B7 here?
The Kd was 19.6 µM.

Which Kd does the source give for B8 here?
Its Kd is 0.00786 µM.

How did the Kd turn out when B9 was run?
Its Kd is 26 µM.

With B10 as the binder, how does the Kd read?
Its Kd is 0.997 µM.

How did the Kd turn out when B11 was run?
Its Kd is 33.7 µM.

The binders below were run against T1, canine FcRn complex (FcRn-α subunit and …) (assay: SPR (Biacore), biotinylated FcRn captured on SA chip, IgG flowed, pH 6, 15 C).

For B6, which Kd is on record?
The Kd was 139 nM.

With B7 as the binder, how does the Kd read?
Its Kd is 77.1 nM.

Which Kd does the source give for B8 here?
The Kd was 9.11 nM.

Which Kd does the source give for B9 here?
Its Kd is 118 nM.

B10 was tested. Which Kd did it give?
The Kd was 14.3 nM.

B11 was tested. Which Kd did it give?
Its Kd is 30.7 nM.

Molecular target: T1, canine FcRn complex (FcRn-α subunit and …)
Assay: as above
Remark: another data set of the same source

Which Kd does the source give for B5 here?
Its Kd is 2.71 nM.
